In article PMC9496542, “The Ni(II)-Binding Activity of the Intrinsically Disordered Region of Human NDRG1, a Protein Involved in Cancer Development” (Biomolecules, 2022):
Values joined by “and” are separate entries in the source; they are usually repeats but may differ in a detail not shown here. Equal entries are not always repeated.

Columns and labels:
[1] = target: the molecule itself; assay: SEC-MALS; SEC-MALS-QELS; hNDRG1 300 uL at 140 uM on Superdex 200 10/300 GL; 20 mM HEPES pH 7.5, 150 mM NaCl, 1 mM TCEP; room temperature, 0.5 mL/min; without or with Ni(II); SEC also run with 10 mM DTT; monomer, dimer and tetramer in equilibrium
[2] = target: the molecule itself; assay: SDS-PAGE under nondenaturing conditions with Western blot; HeLa cells untreated or treated with 1 mM NiSO4 for 24 h; lysed under nondenaturing conditions; lysates in native sample buffer; blot with an antibody against the N-terminal region of NDRG1
[3] = target: the molecule itself; assay: SDS-PAGE under nondenaturing conditions with Western blot; A549 cells untreated or treated with 1 mM NiSO4 for two days; total lysates and nuclear extracts; Western blot with anti-NDRG1

B1: full-length human NDRG1 (N-terminal Strep-tagged, recombinant) (natural protein)
chain: not shown
notes: No cleavage of the tag is described for the full-length protein; also called hNDRG1; N-myc downstream-regulated gene 1 protein; source: E. coli BL21-CodonPlus (DE3) RiL, purified (StrepTrap HP, Superdex 200)
stoichiometry N [1]: 4 and 2

B2: endogenous hNDRG1 in HeLa cells (natural protein)
chain: not shown
notes: human NDRG1, endogenous protein of HeLa cells, detected with an antibody against the N-terminal region of NDRG1; source: endogenous, HeLa lysate
stoichiometry N [2]: 2 and 4

B3: endogenous hNDRG1 in A549 cells (natural protein)
chain: not shown
notes: human NDRG1, endogenous protein of the lung carcinoma-derived A549 cells, detected by Western blot with anti-NDRG1; source: endogenous, A549 lysate
stoichiometry N [3]: 4
